Reference: patent US20170340698A1, “CYCLIC PEPTIDE SPECIFICALLY BINDING TO APOPTOTIC CELLS AND USE THEREOF” (KYUNGPOOK NATIONAL UNIVERSITY INDUSTRY-ACADEMIC COOPERATION …, priority 2014, published 2017)

Columns and labels:
[1] = target: histone H1 present on surfaces of apoptotic cells (apoptotic SNU16 human stomach cancer cells) (human) (UniProt P07305); test: flow cytometry, FITC-peptide on SNU16 cells treated with cisplatin and cetuximab in combination for 24 h
[2] = target: histone H1 present on surfaces of apoptotic cells (apoptotic SNU16 human stomach cancer cells) (human) (UniProt P07305); test: flow cytometry, FITC-peptide on SNU16 cells treated with cisplatin alone for 24 h
[3] = target: histone H1 present on surfaces of apoptotic cells (apoptotic SNU16 human stomach cancer cells) (human) (UniProt P07305); test: flow cytometry, FITC-peptide on SNU16 cells treated with cetuximab alone for 24 h

cyclic form of ApoPep-1 (cyclo[Cys-Gln-Arg-Pro-Pro-Arg-Cys] peptide)
percentage of apoptotic cells detected (peptide-bound fluorescent cells) [1]: 78%
percentage of apoptotic cells detected (peptide-bound fluorescent cells) [2]: 56%
percentage of apoptotic cells detected (peptide-bound fluorescent cells) [3]: 49%

linear form of ApoPep-1 (CQRPPR) (peptide)
percentage of apoptotic cells detected (peptide-bound fluorescent cells) [1]: 34%
percentage of apoptotic cells detected (peptide-bound fluorescent cells) [2]: 28%
percentage of apoptotic cells detected (peptide-bound fluorescent cells) [3]: 25%
